Experimental data from patent US20240084017A1 (ASCENDO BIOTECHNOLOGY, published 2024).

Legend:
[1] = target: T1, human Mac-1 (integrin αMβ2, CD11b/CD18) (human, UniProt P11215 17-1152; P05107 23-769); experiment: flow cytometry, HEK293/Mac-1 cells (clone 1-4), PBS (Mock)
Procedure: (§1) The HEK293/Mac-1 cells (clone1-4) were counted and washed twice with staining buffer (PBS containing 1% FBS, and 0.1% sodium azide). Cells were adjusted at a concentration of 1×10⁵ cells/ml in staining buffer and treated with/without 0.25 mM MnCl₂ (Sigma). Cells were treated with anti-Mac-1 antibodies and fluorescent conjugated anti-human IgG4 antibodies and incubated for 15 mins. After washing with the staining buffer, the cells were analyzed by flow cytometry. In some examples, these cells were treated with the antibodies (ICRF44, KIM127, m24, or isotype control) in the presence or absence 10 μg/ml anti-Mac-1 antibodies. The cells were then incubated at 37° C. for 30 min. After washing with the staining buffer, the cells were analyzed by flow cytometry.
(§2) TABLE II The anti-Mac-1 antibodies selectively bind to different statuses of human Mac-1. HEK293/Mac-1 cells (clone1-4) were incubated in PBS (Mock), or PBS/MnCl₂ (Mn²⁺). Binding of isotype control IgG, the CD11b specific mAb (ICRF44), the CD11b activation-sensing mAb (CBRM1/5), or the screened anti-Mac-1 antibody was detected using flow cytometry.

[2] = target: T1, human Mac-1 (integrin αMβ2, CD11b/CD18); experiment: flow cytometry, HEK293/Mac-1 cells, PBS (Mock), 10 µg/ml of this antibody; binding of reporter mAb m24 read
Procedure: as §1
(§3) TABLE III The anti-Mac-1 antibodies can serve as agonist to enhance the conformational change of Mac-1. HEK293/Mac-1 cells (clone1-4) were incubated with 10 μg/ml anti-Mac-1 antibodies under the PBS (Mock) condition. Binding of KIM127 or m24 was detected using flow cytometry.

[3] = target: T1, human Mac-1 (integrin αMβ2, CD11b/CD18); experiment: flow cytometry, HEK293/Mac-1 cells (clone 1-4), PBS/MnCl2 (Mn2+)
Procedure: as §1, §2

[4] = target: T1, human Mac-1 (integrin αMβ2, CD11b/CD18); experiment: flow cytometry, HEK293/Mac-1 cells; MFI in PBS over MFI in PBS/MnCl2
Procedure: as §1, §2

[5] = target: T1, human Mac-1 (integrin αMβ2, CD11b/CD18); experiment: flow cytometry, HEK293/Mac-1 cells, PBS (Mock), 10 µg/ml of this antibody; binding of reporter mAb KIM127 read
Procedure: as §1, §3

[6] = target: T1, human Mac-1 (integrin αMβ2, CD11b/CD18); experiment: flow cytometry, HEK293/Mac-1 cells, PBS/MnCl2 (Mn2+), 10 µg/ml of this antibody; binding of reporter mAb KIM127 read
Procedure: as §1
(§4) TABLE IV The anti-Mac-1 antibody can serve as an antagonist to reduce the conformational change of Mac-1. HEK293/Mac-1 cells (clone1-4) were incubated with 10 μg/ml anti-Mac-1 antibodies under the PBS/MnCl₂ (Mn²⁺) condition. Binding of KIM127 or m24 was detected using flow cytometry.

[7] = target: T1, human Mac-1 (integrin αMβ2, CD11b/CD18); experiment: flow cytometry, HEK293/Mac-1 cells, PBS/MnCl2 (Mn2+), 10 µg/ml of this antibody; binding of reporter mAb m24 read
Procedure: as §1, §4

Binder	Mock MFI [1]	m24 (Expression relative to IgG4) [2]	Mn^2+ MFI [3]	Mock/Mn^2+ Ratio [4]	KIM127 (Expression relative to IgG4) [5]	KIM127 (Expression relative to IgG4) [6]	m24 (Expression relative to IgG4) [7]
anti-Mac-1 antibody clone DF4M-31 (antibody, human IgG4, V domains shown) VH: EVQLVESGGGLVQPGGSLRLSCAASGFTFTSATMSWVRQAPGKGLEWVSIISPGGSETYYADSVKGRFTISRDNSKNTLYLQMNSLRAEDTAVYYCARGGDYPSYYMDPWGQGTLVTVSS VL: DIQMTQSPSSLSASVGDRVTITCRASQSISNYLAWYQQKPGKAPKLLIYGTSSLQSGVPSRFSGSGSGTDFTLTISSLQPEDFATYYCQQGHQWPWTFGQGTKVEIK	4630 MFI	3.77 relative to IgG4	13000 MFI	0.36	1.13 relative to IgG4	1.48 relative to IgG4	3.87 relative to IgG4
anti-Mac-1 antibody clone 24H01 (antibody, human IgG4, V domains shown) VH: EVQLVESGGGLVQPGGSLRLSCAASGFTFNNYYMSWVRQAPGKGLEWVSIIYYDGSEADYADSVKGRFTISRDNSKNTLYLQMNSLRAEDTAVYYCARNKDIYSVYGMDYWGQGTLVTVSS VL: DIQMTQSPSSLSASVGDRVTITCRASQSISNYLAWYQQKPGKAPKLLIYATSNLQSGVPSRFSGSGSGTDFTLTISSLQPEDFATYYCQQANNTPPTFGQGTKVEIK	9940 MFI	1.92 relative to IgG4	23900 MFI	0.42	1.05 relative to IgG4	1.49 relative to IgG4	2.36 relative to IgG4
anti-Mac-1 antibody clone 25A06 (antibody, human IgG4, V domains shown) VH: EVQLVESGGGLVQPGGSLRLSCAASGFTFSSYYMSWVRQAPGKGLEWVSTINYDGSEKDYADSVKGRFTISRDNSKNTLYLQMNSLRAEDTAVYYCARDRLGNYPWFDVWGQGTLVTVSS VL: DIQMTQSPSSLSASVGDRVTITCRASQSISNYLAWYQQKPGKAPKLLIYDANNLQSGVPSRFSGSGSGTDFTLTISSLQPEDFATYYCQQSYSWPLTFGQGTKVEIK	28500 MFI	16.8 relative to IgG4	39400 MFI	0.72	1.92 relative to IgG4	1.74 relative to IgG4	3.5 relative to IgG4
anti-Mac-1 antibody clone DF4-22 (antibody, human IgG4, V domains shown) VH: EVQLVESGGGLVQPGGSLRLSCAASGFTFTDYNVHWVRQAPGKGLEWVSGINSSGSETNYADSVKGRFTISRDNSKNTLYLQMNSLRAEDTAVYYCARDSVFKTVGGYDAVMDYWGQGTLVTVSS VL: DIQMTQSPSSLSASVGDRVTITCRASQSIYNYLAWYQQKPGKAPKLLIYGTSTLQSGVPSRFSGSGSGTDFTLTISSLQPEDFATYYCMQSYSSPTTFGQGTKVEIK	24400 MFI	15.7 relative to IgG4	35200 MFI	0.69	1.82 relative to IgG4	1.64 relative to IgG4	4.37 relative to IgG4
anti-Mac-1 antibody clone 27D06 (antibody, human IgG4, V domains shown) VH: QVKLQESGAEVVKPGASVKISCKASGYSFTDYNMNWVKQSNGKSLEWIGVINPNYGTTSYNQKFKGKATLTVDQSSSTAYMQLNSLTSEDSAVYYCARTYDYDGDAFAYWGQGTTVTVSS VL: DIELTQSPALMSASPGEKVTMTCRASSSVSSNNLHWYQQKSGASPKLWIYSTSNLATGAPARFSGSGSGTSYSLTISSMEAEDAATYYCQQWNSNPPTFGGGTKLEIK	15000 MFI	1.2 relative to IgG4	16600 MFI	0.9	0.99 relative to IgG4	1.05 relative to IgG4	1.38 relative to IgG4
anti-Mac-1 antibody clone 27A04 (antibody, human IgG4, V domains shown) VH: QVKLQQSGPELVKPGASVKISCKASGYSFTDYNMNWVKQSNGKSLEWIGVINPNYGTTSYNQKFKGKATLTVDQSSSTAYMQLNSLTSEDSAVYYCARTYDYDGDAFAYWGQGTTVTVSS VL: DIELTQSPAIMSASPGEKVTMTCSASSSVSYMHWYQQKSGTSPKRWIYDTSKLASGVPARFSGSGSGTSYSLTISSMEAEDAATYYCQQWSSNPPTFGAGTKLELK	36100 MFI	0.78 relative to IgG4	39800 MFI	0.91	1.05 relative to IgG4	0.7 relative to IgG4	0.88 relative to IgG4
anti-Mac-1 antibody clone 27G04 (antibody, human IgG4, V domains shown) VH: QVKLQESGPELVKPGASVKISCKASGYSFTDYNMNWVKQSNGKSLEWIGVINPNYGTTSYNQKFKGKATLTVDQSSSTAYMQLNSLTSEDSAVYYCARTFDYDDDAFAYWGQGTTVTVSS VL: DIELTQSPAIMSASPGEKVTITCSASSSVSDMHWYQQKSGTSPKRWIYDTSKLASGVPARFSGSGSGTSYSLTISNMEAEDAATYYCQQWSSNPPTFGAGTKLELK	43100 MFI	1 relative to IgG4	41100 MFI	1.05	1.11 relative to IgG4	0.89 relative to IgG4	1.14 relative to IgG4
anti-Mac-1 antibody clone 27A06 (antibody, human IgG4, V domains shown) VH: QVKLQQSGPELVTPGASVKISCKPSGYSFTDYNMNWVKQSNGKSLEWIGEINPNYGTTRHNQKFKGKASLTVDQSSSTAYMQLISLTSEDSAVYYCARTYDYDEDAFAYWGQGTTVTVSS VL: DIELTQSPAIMSASPGEKVTMTCSASSSVSYMHWYQQKSDTSPKRWIYDTSKLASGVPARFSGSGSGTSYSLTISSMEAEDAATYYCQQWSSNPPTFGAGTKLELK	64600 MFI	0.88 relative to IgG4	48000 MFI	1.35	1.04 relative to IgG4	0.85 relative to IgG4	0.88 relative to IgG4
anti-Mac-1 antibody clone 28E07 (antibody, human IgG4, V domains shown) VH: QVQLQQSGPELVKPGASVKISCKASGYSFTDYNMNWVKQSNGKSLEWIGEINPGYGTSRYNQKFKDKATLTVDQSSTTAYMQLNSLTSEDSAVYYCARADVDYGDVMDYWGQGTTVTVSS VL: DIELTQSPAIMSASPGEKVTMTCSASSSVSYMHWYQQKSGTSPKRWIYDTSKLASGVPTRFSGSGSGTSYSLTISSMEAEDAATYYCQQWSSNPPTFGAGTKLELK	53400 MFI	0.63 relative to IgG4	56400 MFI	0.95	0.98 relative to IgG4	0.65 relative to IgG4	0.85 relative to IgG4
anti-Mac-1 antibody clone 25A04 (antibody, human IgG4, V domains shown) VH: EVQLVESGGGLVQPGGSLRLSCAASGFTFSFTAMHWVRQAPGKGLEWVSAIIYNGSEADYADSVKGRFTISRDNSKNTLYLQMNSLRAEDTAVYYCARANDYDHGCCDNYAMDYWGQGTLVTVSS VL: DIQMTQSPSSLSASVGDRVTITCRASQGIGSYLYWYQQKPGKAPKLLIYDASNLQSGVPSRFSGSGSGTDFTLTISSLQPEDFATYYCMQHGGWPLTFGQGTKVEIK	39600 MFI	9.33 relative to IgG4	65800 MFI	0.6	1.58 relative to IgG4	1.34 relative to IgG4	2.11 relative to IgG4
